{"source": "patent US5633227", "about": "“Secretory leukocyte protease inhibitor as an inhibitor of tryptase” (Miles, Inc., dated 1997)", "binders": {"B1": {"name": "C-terminal domain of SLPI (amino acids 50-107) (other)", "chain": "PVDTPNPTRRKPGKCPVTYGQCLMLNPPNFCEMDGQCKRDLKCCMGMCGKSCVSPVKA"}}, "key": {"bovine trypsin [1]": {"biological_target": "T1, bovine trypsin (bovine, UniProt P00760)", "test": "GPK-AMC enzyme inhibition assay with bovine trypsin", "procedure": "(§1) Inhibitory activity against tryptase and bovine trypsin was measured using Gly-Pro-Lys-aminomethylcoumarin as a substrate. The reaction was performed in assay buffer that consisted of 0.1M Tris (pH 8.0), 1 µg/ml heparin, 0.02% Triton X-100, with 20 mM CaCl_2 included only in the trypsin assays. The amount of coumarin produced was determined by measuring the fluorescence (ex=370 nm, em=432 nm) on a Perkin-Elmer LS-50B fluorimeter. To measure tryptase activity, 12 µl of a 1 nM solution of tryptase (tetramer) was incubated with either the N- (34 to 650 nM final) or the C-terminal (7–150 nM final) domain of SLPI in 1.0 ml of assay buffer for 5 minutes at 37° C. The reaction was started by the addition of the substrate GPK-AMC (20 or 40 µM final) and the increase in fluorescence was measured over a 2 minute period. In order to measure trypsin activity, 3.3 µl of a 10 µg/ml solution was incubated with either the N- or C- terminal domains of SLPI, and assayed using both 10 and 20 µM GPK-AMC. To determine K_i values, Dixon plots of the form 1/V vs [I] were constructed. These are shown in FIG. 8, and the results are listed in Table V. The K_i values for the inhibition of the tryptase catalyzed cleavage of GPK-AMC by the N- and C-terminal domains were determined to be 290 nM and 4.8 nM, respectively (FIG. 8)."}, "bovine trypsin [2]": {"biological_target": "T1, bovine trypsin", "test": "GPK-AMC enzyme inhibition assay, Dixon plot, bovine trypsin", "procedure": "as §1"}}, "data": [{"binder": "SGKSFKAGVCPPKKSAQCLRYKKPECQSDWQCPGKKRCCPDTCGIKCLD (other)", "note": "[N-terminal domain of SLPI (amino acids 1-49)]", "values": [{"measurement": "binding result", "setting": "bovine trypsin [1]", "result": "no binding (tested: 1800 nM)"}, {"measurement": "Ki", "setting": "bovine trypsin [2]", "result": "> 1800", "unit": "nM"}]}, {"binder": "B1", "values": [{"measurement": "Ki", "setting": "bovine trypsin [2]", "result": 130, "unit": "nM"}]}]}
